Results taken from article PMC6135743.

Experiments:
[1] = biological target: B41 SOSIP.664 soluble Env trimer (HIV-1 strain B41 (subtype B)); assay: native gel or EMSA
[2] = biological target: B41 viral Env trimer from infectious virus (HIV-1 strain B41 (subtype B)); assay: native gel or EMSA
[3] = biological target: B41 ΔCT membrane-bound Env trimer (HIV-1 strain B41 (subtype B)); assay: native gel or EMSA
[4] = biological target: BG505 N332 SOSIP.664 soluble Env trimer (HIV-1 strain BG505 (subtype A)); assay: native gel or EMSA
[5] = biological target: BG505 viral Env trimer from infectious virus (HIV-1 strain BG505 (subtype A)); assay: native gel or EMSA
[6] = biological target: BG505 ΔCT N332 membrane-bound Env trimer (HIV-1 strain BG505 (subtype A)); assay: native gel or EMSA
[7] = biological target: BG505 ΔCT T332 membrane-bound Env trimer (HIV-1 strain BG505 (subtype A)); assay: native gel or EMSA
[8] = biological target: JR-FL E168K SOSIP.664 soluble Env trimer (HIV-1 strain JR-FL (subtype B)) (UniProt Q75760); assay: native gel or EMSA
[9] = biological target: JR-FL viral Env trimer from infectious virus (HIV-1 strain JR-FL (subtype B)); assay: native gel or EMSA
[10] = biological target: JR-FL ΔCT membrane-bound Env trimer (HIV-1 strain JR-FL (subtype B)) (UniProt Q75760); assay: native gel or EMSA
[11] = biological target: BG505 ΔCT T332 membrane-bound Env trimer (HIV-1 strain BG505 (subtype A)); assay: cryo-EM structure
[12] = biological target: B41 viral Env trimer from infectious virus (HIV-1 strain B41 (subtype B))

Molecule: B41 SOSIP.664 soluble Env trimer (complex)
- stoichiometry N [1]: 3

Molecule: B41 viral Env trimer from infectious virus (complex)
- stoichiometry N [2]: 3

Molecule: B41 ΔCT membrane-bound Env trimer (complex)
- stoichiometry N [3]: 3

Molecule: BG505 N332 SOSIP.664 soluble Env trimer (complex)
- stoichiometry N [4]: 3

Molecule: BG505 viral Env trimer from infectious virus (complex)
- stoichiometry N [5]: 3

Molecule: BG505 ΔCT N332 membrane-bound Env trimer (complex)
- stoichiometry N [6]: 3

Molecule: BG505 ΔCT T332 membrane-bound Env trimer (complex)
- stoichiometry N [7]: 3

Molecule: JR-FL E168K SOSIP.664 soluble Env trimer (from UniProt Q75760 1-847) (complex)
- stoichiometry N [8]: 3

Molecule: JR-FL viral Env trimer from infectious virus (complex)
- stoichiometry N [9]: 3

Molecule: JR-FL ΔCT membrane-bound Env trimer (from UniProt Q75760 1-847) (complex)
- stoichiometry N [10]: 3

Molecule: PGT151 Fab
- stoichiometry N (Fabs per trimer) [11]: < 2

B1: PGT151 monoclonal antibody (bnAb) (antibody, V domains shown)
VH: RVQLVESGGGVVQPGKSVRLSCVVSDFPFSKYPMYWVRQAPGKGLEWVAAISGDAWHVVYSNSVQGRFLVSRDNVKNTLYLEMNSLKIEDTAVYRCARMFQESGPPRLDRWSGRNYYYYSGMDVWGQGTTVTVSS
VL: DIVMTQTPLSLSVTPGQPASISCKSSESLRQSNGKTSLYWYRQKPGQSPQLLVFEVSNRFSGVSDRFVGSGSGTDFTLRISRVEAEDVGFYYCMQSKDFPLTFGGGTKVDLK
- neutralisation of B41 virus, maximal percent (Supplementary Figure 5) [12]: < 75%
